Experimental data as given in the RNAGym collection of RNA variant scans (doi:10.1073/pnas.2313332121).

B1: TPR t1 (parent)
chain: GACCAAUCUGCCCUCAGAGCUCGAGAACAUCUUCGGAUGCAGAGGAGGCAGGCUUCGGUGGCGCGAUAGCGCCAACGUCCUCAACCUCCAAUGCAUCCCACCACAUGAUGAUGCCUGAAGAGCCUUGGUUUUUUG

Variants of: B1
Test: polymerase ribozyme fitness, log enrichment relative to wild type (log ratio); higher = more active; in vitro selection for triplet polymerase activity
Outline: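 To select mutant libraries of each subunit of a heterodimeric triplet polymerase ribozyme, built by PCR and transcribed, each was annealed with a biotinylated primer, partner subunit and triplets, then incubated frozen at −7 °C. Extended constructs were gel-excised, captured on streptavidin beads and amplified by RT-PCR, in one round carried out in triplicate. Illumina sequencing of input and output libraries kept genotypes with ≥10 input reads and ≥1 read per output. Fitness is the base-2 logarithm of genotype enrichment relative to wild-type enrichment, from inverse-variance-weighted replicate averages.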

Row | Variant | polymerase ribozyme fitness (log ratio)
1 | GACCAAUCUGCCCUCAGAGCUCGAGAACAUCUUCGGAUGCAGAGGAGGCAGGCUUCGGUGGUGCGAUAGCGCCAACGUCCUCAACCUCCAAUGCAUCCCACCACAGGAUGAUGCCUGAAGUUCCUUGGUUUUUUG [C62U U106G A121U G122U] | -1.15
2 | GACCAAUCUGCCCUCAGAGCUCGAGAACAUCUUCGGAUGCAGAGGAGGCAGGCUUCGGUGGUGCGAUAGCGCCAACGUCCGCUACCUCUAAUGCAUCCCACCACAUGAUGAUGCCUUAAGAGCCUUGGUUUUUUG [C62U U81G A83U C89U G117U] | -5.98
3 | GACCAAUCUGCCCUCAGAGCUCGAGAACAUCUUCGGAUGCAGAGGAGGCAGGCUUCGGUGGUGCGAUAGCGCCAACGUCCUCAACCUCCAAGGCAUCCCACCACAUGAUGAUGCCUGAAGAGCCUUGGUUUUUUG [C62U U92G] | -2.9
4 | GACCAAUCUGCCCUCAGAGCUCGAGAACAUCUUCGGAUGCAGAGGAGGCAGGCUUCGGUGGUGCGAUAGCGCCAACGUCCUCAACCUCCAAAGCAUCCCACCACAUGAUGAUGCCUGAAGAGCCUUGGUUUUUUG [C62U U92A] | -3.44
5 | GACCAAUCUGCCCUCAGAGCUCGAGAACAUCUUCGGAUGCAGAGGAGGCAGGCUUCGGUGGUUCGAUAGCGCCAACGUCCUCAACCUCCAAUGCAUCCCAUCACAUGAUGAUGCCUGAAGAGCCUUGGUUUUUUA [C62U G63U C101U G135A] | -2.36
6 | GACCAAUCUGCCCUCAGAGCUCGAGAACAUCUUCGGAUGCAGAGGAGGCAGGCUUCGGUGGUGCGAUAGCGCCAACGUCCUCAACCUCCAAUGCAUCCCACCACAUGAUGAUGCCUAAAGAGCCUUGGUUUUUUG [C62U G117A] | -1.28
7 | GACCAAUCUGCCCUCAGAGCUCGAGAACAUCUUCGGAUGCAGAGGAGGCAGGCUUCGGUGGUGCGAUAGCGCCAACGUCCUCAACCUCCAAUGCAUCCCACCACAUGAUGAUGCCUUAAGAGCCUUGGUUUUUUG [C62U G117U] | -2.6
8 | GACCAAUCUGCCCUCAGAGCUCGAGAACAUCUUCGGAUGCAGAGGAGGCAGGCUUCGGUGGUGCGAUAGCGCCAACGUCCCCAACCUCCAAUGCAUCCCAUCACAUGAUGAUGCCUGAAGAGCCUUGGUUUUUUG [C62U U81C C101U] | -0.199
9 | GACCAAUCUGCCCUCAGAGCUCGAGAACAUCUUCGGAUGCAGAGGAGGCAGGCUUCGGUGGUGCGAUAGCCCCAACGUCCUCAACCUCCAAUGCAUCCCACCACAUGAUGAUGCCUGAAGAGCCUUGGUUGUUUG [C62U G71C U131G] | -0.416
10 | GACCAAUCUGCCCUCAGAGCUCGAGAACAUCUUCGGAUGCAGAGGAGGCAGGCUUCGGUGGUGCGAUAGCGCCAACGUCCUCAACCUCCAAUGCAUCCCACCACACGAUGAUGCCUGAAGAGCCUUGGUUUUUUG [C62U U106C] | -0.141
11 | GACCAAUCUGCCCUCAGAGCUCGAGAACAUCUUCGGAUGCAGAGGAGGCAGGCUUCGGUGGUGCGAUAGCGCCAACGCCCUGACCCUCCAAUACAUCCCACCACAUGAUGAUGCCUGAAGAGUCUUGGGUUUUUG [C62U U78C C82G A84C G93A C123U U129G] | -1.05
12 | GACCAAUCUGCCCUCAGAGCUCGAGAACAUCUUCGGAUGCAGAGGAGGCAGGCUUCGGUGGUGCGAUAGCGCCAACGUCCUCAACCUCCAAUGCAUCCCACCACAAGAUGAUGCCUGAAUAGCGUUGGUUUUUUG [C62U U106A G120U C124G] | 1.54
13 | GACCAAUCUGCCCUCAGAGCUCGAGAACAUCUUCGGAUGCAGAGGAGGCAGGCUUCGGUGGUCCGAUAGCGCCAACGUCCUCAACCUCCAAUGCAUCCCACCACAUGAUGAUGCCUGAAGAGCCUUGGUUUUUUG [C62U G63C] | -2.14
14 | GACCAAUCUGCCCUCAGAGCUCGAGAACAUCUUCGGAUGCAGAGGAGGCAGGCUUCGGUGGUGCGAUAGCGCCAACGUCCUCAACCUCCAAUCCAUCCCACCACAUGAUGAUGCCUGAAGAGCCUUGGUUUUUUG [C62U G93C] | -1.8
15 | GACCAAUCUGCCCUCAGAGCUCGAGAACAUCUUCGGAUGCAGAGGAGGCAGGCUUCGGUGGUUCGAUAGCGCCAACGGCCGCAACCUCCAAUGCAUCCCACCACAUGAUGAUGCCUGAAGAGCCUUGGUUUUUUG [C62U G63U U78G U81G] | -5.08
16 | GACCAAUCUGCCCUCAGAGCUCGAGAACAUCUUCGGAUGCAGAGGAGGCAGGCUUCGGUGGUGCUAUAGCGCCAACGUCCUCAACCUCCAAUGCAUCCCACCACAUGAUGAUGCCUGAAGAGCCUUGGUUUUUUG [C62U G65U] | -3.73
17 | GACCAAUCUGCCCUCAGAGCUCGAGAACAUCUUCGGAUGCAGAGGAGGCAGGCUUCGGUGGUGCGAUAGCGCCAACGUCCUCAACCUCCAAUGCAUCCCACCACAUGAUGAUGCUUGAAGAGCCUUGGUUUUUUG [C62U C115U] | -1.22
18 | GACCAAUCUGCCCUCAGAGCUCGAGAACAUCUUCGGAUGCAGAGGAGGCAGGCUUCGGUGGUGCGAUAGCGCCAACGUCCUCAACCUCCAAUGCAUCCCACCACAUGAUGAUGACUGAAGAGCCUUGGUUUUUUG [C62U C114A] | -1.35
19 | GACCAAUCUGCCCUCAGAGCUCGAGAACAUCUUCGGAUGCAGAGGAGGCAGGCUUCGGUGGUGCGAUAGCGCCAACGUCCUCAACCUCCAAUGCAUCCCACCACAUGAUCAUGCCUGAAGAGCUAUGGUUUUUUG [C62U G110C C124U U125A] | -5.16
20 | GACCAAUCUGCCCUCAGAGCUCGAGAACAUCUUCGGAUGCAGAGGAGGCAGGCUUCGGUGGUGCGAUAGCGCCAACGUCCUCAACCACCAAUGCAUCCCACCACAUGAUGAUGCCUGAAGUGCCUUGGUUUUUUG [C62U U87A A121U] | 2.07
21 | GACCAAUCUGCCCUCAGAGCUCGAGAACAUCUUCGGAUGCAGAGGAGGCAGGCUUCGGUGGUGCGAUAGCGCCAACGUCCUCAACCUCCAAUGCAUCCCACCACAUGAUGAUCCCUGAAGAGCCUUCGUUUUUUG [C62U G113C G127C] | -3.6
